Experimental data: PMC6586323, “Comparative analysis of the metal-dependent structural and functional properties of mouse and human SMP30” (PLoS ONE, 2019)

B1: MoSMP30 (Mus musculus) (protein)
chain: MSSIKVECVLRENYRCGESPVWEEASQSLLFVDIPSKIICRWDTVSNQVQRVAVDAPVSSVALRQLGGYVATIGTKFCALNWENQSVFVLAMVDEDKKNNRFNDGKVDPAGRYFAGTMAEETAPAVLERHQGSLYSLFPDHSVKKYFDQVDISNGLDWSLDHKIFYYIDSLSYTVDAFDYDLQTGQISNRRIVYKMEKDEQIPDGMCIDAEGKLWVACYNGGRVIRLDPETGKRLQTVKLPVDKTTSCCFGGKDYSEMYVTCARDGLNAEGLLRQPDAGNIFKITGLGVKGIAPYSYAG
B2: HuSMP30 (Homo sapiens) (protein)
chain: MSSIKIECVLPENCRCGESPVWEEVSNSLLFVDIPAKKVCRWDSFTKQVQRVTMDAPVSSVALRQSGGYVATIGTKFCALNWKEQSAVVLATVDNDKKNNRFNDGKVDPAGRYFAGTMAEETAPAVLERHQGALYSLFPDHHVKKYFDQVDISNGLDWSLDHKIFYYIDSLSYSVDAFDYDLQTGQISNRRSVYKLEKEEQIPDGMCIDAEGKLWVACYNGGRVIRLDPVTGKRLQTVKLPVDKTTSCCFGGKNYSEMYVTCARDGMDPEGLLRQPEAGGIFKITGLGVKGIAPYSYAG

Assays:
Experiment in all cases: purified protein
[1] = substrate: CCOP(=O)(OCC)SCCSCC; type: biochemical, Mus musculus; settings: 1 mM Ca2+, 50 mM Tris-HCl pH 8.0, 0.1 mM DTNB, substrate range 1-10 mM
[2] = substrate: O=C1CCCS1; type: biochemical, Mus musculus; settings: 1 mM Ca2+, 50 mM Tris-HCl pH 7.0, 0.1 mM DTNB, substrate range 1-10 mM
[3] = substrate: CCOP(=O)(OCC)SCCSCC; type: biochemical, Homo sapiens; settings: 1 mM Ca2+, 50 mM Tris-HCl pH 8.0, 0.1 mM DTNB, substrate range 1-10 mM
[4] = substrate: O=C1CCCS1; type: biochemical, Homo sapiens; settings: 1 mM Ca2+, 50 mM Tris-HCl pH 7.0, 0.1 mM DTNB, substrate range 1-10 mM

Row | Protein | Km [1] [mM] | Vmax [1] [µM/min] | kcat [1] [s⁻¹] | kcat/Km [1] [M⁻¹ s⁻¹] | Km [2] [mM] | Vmax [2] [µM/min] | kcat [2] [s⁻¹] | kcat/Km [2] [M⁻¹ s⁻¹] | Km [3] [mM] | Vmax [3] [µM/min] | kcat [3] [s⁻¹] | kcat/Km [3] [M⁻¹ s⁻¹] | Km [4] [mM] | Vmax [4] [µM/min] | kcat [4] [s⁻¹] | kcat/Km [4] [M⁻¹ s⁻¹]
1 | B1 | 3.57 ± 1.5 | 0.0085 | 0.00193 | 0.533 | 39.49 ± 7.9 | 0.286 | 0.0647 | 1.63 |  |  |  |  |  |  |  | 
2 | B2 |  |  |  |  |  |  |  |  | 17.45 ± 5 | 0.0357 | 0.00808 | 0.467 | 19.8 ± 2.9 | 0.453 | 0.102 | 5.17
